The values below come from patent US5858678, “Apoptosis-regulating proteins” (St. Louis University, dated 1999).

The target of one test is T1, yeast SNF1 protein bait (yeast, UniProt P06782).
T1 sequence: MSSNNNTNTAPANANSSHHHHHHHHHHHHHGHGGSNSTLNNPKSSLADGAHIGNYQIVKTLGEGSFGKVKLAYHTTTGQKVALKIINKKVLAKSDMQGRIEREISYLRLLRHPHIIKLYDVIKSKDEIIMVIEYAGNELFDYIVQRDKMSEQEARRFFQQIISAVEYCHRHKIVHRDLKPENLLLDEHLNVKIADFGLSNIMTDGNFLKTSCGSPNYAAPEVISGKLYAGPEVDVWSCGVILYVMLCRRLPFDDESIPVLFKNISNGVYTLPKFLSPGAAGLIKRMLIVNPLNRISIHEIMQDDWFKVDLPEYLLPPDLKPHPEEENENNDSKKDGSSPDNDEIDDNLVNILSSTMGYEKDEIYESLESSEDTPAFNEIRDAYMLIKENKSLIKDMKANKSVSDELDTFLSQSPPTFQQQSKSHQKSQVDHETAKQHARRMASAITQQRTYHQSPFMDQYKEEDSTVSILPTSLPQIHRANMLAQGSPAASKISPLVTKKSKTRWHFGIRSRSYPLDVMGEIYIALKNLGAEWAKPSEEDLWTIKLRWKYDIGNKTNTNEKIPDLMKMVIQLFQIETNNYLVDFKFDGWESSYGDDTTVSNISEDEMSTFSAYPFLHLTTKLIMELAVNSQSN
The test is described as follows: yeast two-hybrid in strain Y153, X-gal (W = White). The method, then: To determine the specificity of the two hybrid interaction, the three clones, 22, 44 and 91, were tested against baits expressing several heterologous proteins (Table 1). Among the various heterologous protein baits used, the adenovirus E3 11.6 kD protein is of particular interest as that protein localizes on the nuclear envelope region and has an internal hydrophobic domain like the E1B 19 kD protein (Scaria et al., 1992).
B = Blue W = White [@]Interactions with all baits except the yeast SNF1 protein were carried out in yeast Strain GGY1::171. Interaction with SNF1 was carried out in yeast strain Y153. *Colonies which appeared on -his, -trp, -leu plates after 6–8 days. Results of X-gal staining are indicated as B, blue; W, white; or ND, not done. The heterologous baits pLAM5 (human lamin) and pAS-SNF1 (yeast SNF1) have been described (Bartel et al., 1993, Durfee et al., 1993). Baits pHIV-1 Rev, pHIV-1 Tat, pHIV-1 Nef and pHTLV-1 Rex expressing the various HIV or HTLV regulating proteins were constructed as described herein and obtained from Cleta D'Sa Eipper and T. Subramanian, St. Louis University Medical Center, St. Louis, MO.

Test [1] addresses GAL4 DNA binding domain alone (vectors pMA424 or pAS1) (yeast, UniProt P04386). The test is described as follows: yeast two-hybrid with the empty GAL4 DNA binding domain vectors.
In test [2] the target is human Bax (two-hybrid partner) (human, UniProt Q07812). The test is described as follows: yeast two-hybrid.

B1: Nip2 (19K-interacting protein 2), protein coded by cDNA clone 44, tagged with the GAL4 activation domain (other)
chain: MEGVELKEEWQDEDFPIPLPEDDSIEADILAITGPEDQPGSLEVNGNKVRKKLMAPDISLTLDPSDGSVLSDDLDESGEIDLDGLDTPSENSNEFEWEDDLPKPKTTEVIRKGSITEYTAAEEKEDGRRWRMFRIGEQDHRVDMKAIEPYKKVISHGGYYGDGLNAIVVFAVCFMPESSQPNYRYLMDNLFKYVIGTLELLVAENYMIVYLNGATTRRKMPSLGWLRKCYQQIDRRLRKNLKSLIIVHPSWFIRTLLAVTRPFISSKFSQKIRYVFNLAELAEL
For the molecule B1, the binding result (with yeast SNF1 protein bait; in test [1]) was “no binding” throughout.

B2: Nip1 (19K-interacting protein 1), protein coded by cDNA clone 22, tagged with the GAL4 activation domain (other)
chain: PQDVHVRICNQEIVKFDLEVKALIQDIRDCSGPLSALTELNTKVKEKFQQLRHRIQDLEQLAKEQDKESEKQLLLQEVENHKKQMLSNQASWRKANLTCKIAIDNLEKAELLQGGDLLRQRKTTKESLAQTSSTITESLMGISRMMAQQVQQSEEAMQSLVTSSRTILDANEEFKSMSGTIQLGRKLITKYNRRELTDKLLIFLALRLFLATVLYIVKKRLFPFL
B2: the binding result in test [2] and in test [1] was “no binding” in each case.
